# Numbering of substitutions follows the chain as printed.
# T1: HLA-DR on PRIESS cells (DRA*0101/DRB1*0401) (human, UniProt P01903 26-254; P01911 30-266)
# T1 MHC II alpha: not shown
# T1 MHC II beta: not shown
# T2: human MHC class II DR protein (DRA*0101/DRB1*0401), purified (human, UniProt P01903 26-254; P01911 30-266, limits assumed)
# T2 construct: mature; Detergent-solubilised protein purified from PRIESS cell lysate on an LB3.1 column; also called HLA-DR protein
# T2 MHC II alpha: not shown
# T2 MHC II beta: not shown
# B1: MS-GPC-8-27-41 (IgG4 form) (antibody, V domains shown)
# VH: QVELKESGPALVKPTQTLTLTCTFSGFSLSTSGVGVGWIRQPPGKALEWLALIDWDDDKYYSTSLKTRLTISKDTSKNQVVLTMTNMDPVDTATYYCARSPRYRGAFDYWGQGTLVTVSS
# VL: DIVLTQPPSVSGAPGQRVTISCSGSESNIGNNYVQWYQQLPGTAPKLLIYDNNQRPSGVPDRFSGSKSGTSASLAITGLQSEDEADYYCQSYDMNVHVFGGGTKLTVLG
# B2: MS-GPC-8-10-57 (Fab) (Fab, V domains shown)
# VH: B1 VH with E3Q
# VL: B1 VL with M94L, N95I, V96R
# B3: MS-GPC-8-27-41 (Fab) (Fab, V domains shown)
# VH: B1 VH with E3Q
# VL: B1 VL
# B4: MS-GPC-8-10-57 (IgG4 form) (antibody, V domains shown)
# VH: B1 VH
# VL: B1 VL with M94L, N95I, V96R
# B5: MS-GPC-8-6-2 (Fab) (Fab, V domains shown)
# VH: B1 VH with E3Q
# VL: B1 VL with N31S, Q35H, M94Y, N95D, V96H, H97Y
# B6: MS-GPC-10-Fab (Fab, V domains shown)
# VH: B1 VH with E3Q, S100Q, P101L, R102H, A106G, Y109L
# VL: B1 VL with E26S, N31S, Q35S, M94L, N95T, V96M, H97G
# B7: MS-GPC-8-17 (Fab) (Fab, V domains shown)
# VH: B1 VH with E3Q
# VL: B1 VL with E26S, N31S, Q35S, M94F, N95S, H97Y
# B8: MS-GPC-8-Fab (Fab, V domains shown)
# VH: B1 VH with E3Q
# VL: B1 VL with E26S, N31S, Q35S, N95P, V96Q, H97A
# B9: MS-GPC-1-Fab (Fab, V domains shown)
# VH: B1 VH with E3Q, S100Q, P101Y, R102G, Y103H, A106G, Y109H
# VL: B1 VL with E26S, N31S, Q35S, M94F, V96E, H97S
# B10: MS-GPC-8-6-47 (Fab) (Fab, V domains shown)
# VH: B1 VH with E3Q
# VL: B1 VL with N31S, Q35S, M94Y, N95D, V96H, H97Y
# B11: MS-GPC-8-6 (IgG form) (antibody, V domains shown)
# VH: B1 VH
# VL: B1 VL with E26S, N31S, Q35S, M94Y, N95D, V96H, H97Y
# B12: MS-GPC-8-6-2 (IgG form) (antibody, V domains shown)
# VH: B1 VH
# VL: B1 VL with N31S, Q35H, M94Y, N95D, V96H, H97Y
# B13: MS-GPC-8-6-19 (Fab) (Fab, V domains shown)
# VH: B1 VH with E3Q
# VL: B1 VL with N31S, Q35A, M94Y, N95D, V96H, H97Y
# B14: MS-GPC-8-27-10 (Fab) (Fab, V domains shown)
# VH: B1 VH with E3Q
# VL: B1 VL with N31A, Q35N
# B15: MS-GPC-8-6-27 (Fab) (Fab, V domains shown)
# VH: B1 VH with E3Q
# VL: B1 VL with E26D, N31A, Q35T, M94Y, N95D, V96H, H97Y
# B16: MS-GPC-8-6-13 (Fab) (Fab, V domains shown)
# VH: B1 VH with E3Q
# VL: B1 VL with N31A, Q35T, M94Y, N95D, V96H, H97Y
# B17: MS-GPC-8-6 (Fab) (Fab, V domains shown)
# VH: B1 VH with E3Q
# VL: B1 VL with E26S, N31S, Q35S, M94Y, N95D, V96H, H97Y
# B18: MS-GPC-8-27-7 (Fab) (Fab, V domains shown)
# VH: B1 VH with E3Q
# VL: B1 VL with Q35G
# B19: MS-GPC-8-6-13 (IgG4 form) (antibody, V domains shown)
# VH: B1 VH
# VL: B1 VL with N31A, Q35T, M94Y, N95D, V96H, H97Y
# B20: L243 (antibody, V domains shown)
# VH: QIQLVQSGPELKKPGETVKISCKASGFTFTNYGMNWVKQAPGKGLKWMGWINTYTREPTYADDFKGRFAFSLETSASTAYLQINNLKNEDTAKYFCARDITAVVPTGFDYWGQGTTLTVSS
# VL: DIQMTQSPASLSVSVGETVTITCRASENIYSNLAWYRQKQGKSPQLLVFAASNLADGVPSRFSGSGSGTQYSLKINSLQSEDFGDYYCQHFWTTPWAFGGGTNLEIK
# Biological target: HLA-DR on LG-2 cells (human)
# Experiment: cell-based or functional assay
Binder,EC50 of cell killing for bivalent agent; LG2; IgG4,EC50 of cell killing for bivalent agent; LG2; Fab cross-linked with anti-FLAG M2
B1,1.23 nM,
B2,,7.2 nM
B3,,7.2 nM
B4,1 nM,

# Biological target: T1, HLA-DR on PRIESS cells …
# Experiment: cell-based or functional assay
Binder,EC50 of cell killing for bivalent agent; PRIESS; Fab cross-linked with anti-FLAG M2,EC50 of cell killing for bivalent agent; PRIESS; IgG4
B5,8 nM,
B1,,1.1 nM
B6,33 nM,
B7,16 nM,
B8,31 nM,
B3,7.7 nM,
B9,54 nM,
B4,,1.1 nM

# Biological target: T3, chimeric DR-IE (human-mouse chimeric MHC class II molecule) (human; murine)
# Experiment: cell-based or functional assay
Binder,"IC50, IL-2 secretion of T-Hyb 1 cells stimulated by 0401-IE transgenic APC; Fab","Maximum inhibition(%), IL-2 secretion of T-Hyb 1 cells; Fab","IC50, IL-2 secretion of T-Hyb 1 cells stimulated by 0401-IE transgenic APC; IgG","Maximum inhibition(%), IL-2 secretion of T-Hyb 1 cells; IgG"
B10,2.6 nM (Fab concentration/2),100%,,
B11,,,6.7 nM,100%
B5,4.7 nM (Fab concentration/2),100%,,
B12,,,3.6 nM,100%
B1,,,0.28 nM,100%
B13,5.3 nM (Fab concentration/2),100%,,
B14,7.3 nM (Fab concentration/2),100%,,
B2,2.9 nM (Fab concentration/2),100%,,
B15,3 nM (Fab concentration/2),100%,,
B8,110 nM (Fab concentration/2),100%,,
B16,2.1 nM (Fab concentration/2),100%,,
B3,3.6 nM (Fab concentration/2),100%,,
B17,20 nM (Fab concentration/2),100%,,
B18,5.9 nM (Fab concentration/2),100%,,
B19,,,0.42 nM,100%
B4,,,0.31 nM,100%

# Biological target: HLA-DR on LG-2 cells (human)
# Experiment: cell-based or functional assay
# Remark: another data set of the same source
row,Binder,"% Killing by mAb; LG-2 (DR 1,1); 50 nM, 4 h"
1,B1,87%
2,B19,82%
3,B4,88%

# Biological target: T1, HLA-DR on PRIESS cells …
# Experiment: cell-based or functional assay
# Remark: another data set of the same source
row,Binder,"% Killing by mAb; PRIESS (DR 4,4); 50 nM, 4 h"
1,B1,88%
2,B19,74%
3,B4,93%

# Biological target: T1, HLA-DR on PRIESS cells …
# Experiment: cell-based or functional assay
# Remark: another data set of the same source
row,Binder,"maximum killing capacity against PRIESS cells, cross-linked bivalent fragment"
1,B8,84%

# Biological target: T3, chimeric DR-IE (human-mouse chimeric …)
# Experiment: cell-based or functional assay
# Remark: another data set of the same source
row,Binder,"IC50 value for inhibition of T cell proliferation (lymph node cells of chimeric 0401-IE transgenic mice, ovalbumin)"
1,B1,20 nM
2,B4,11 nM

# Biological target: T2, human MHC class II DR protein …
# Experiment: not stated (Z. A. Nagy, unpublished)
row,Binder,Kd
1,B20,10 nM
